# Measurements as given in the nanobody polyreactivity screen of Harvey et al. (2022).
# Assay: yeast display, Sf9 membrane polyspecificity reagent, FACS + sequencing; frameworks hold sequencing errors
# Procedure, shortened: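 A nanobody's polyreactivity label depends on the gate it was sorted from. Yeast display cells were stained with 10% biotinylated, detergent-solubilized Sf9 membrane reagent for 1 hour at 4 °C, enriched on streptavidin microbeads and sorted by FACS. The low and high (top ~1%) gates were set on anti-HA fluorescence for expression and streptavidin fluorescence for reagent binding.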
row,Sequence,polyreactivity (PSR sort gate)
1,QVQLVESGGGLVQAGGSLRLSCAASGRIFGVNAMGWYRPAPGKERELVAHIRSSGASTYYADSVKGRFTISRDNAKNTVYLQMNSLKPEDTAVYYCARDYFVDGPGYDYWGQGTQVTVSS,low polyreactivity
2,QVQLVESGGGLVQAGGSLRLSCAASGRIFGVNAMGWYRQAPGKERELVAGITTSGGSTYYADSVKGRFTISRDNAKNTVYLQMNSLKPEDTAVYYFNGLTRRWYSLRSYDYWGQGTQVTVSW,high polyreactivity
3,QVQLVESGGGLVQAGGSLRLSCAASGRIFGVNTMGWYRQEPGKEREMVAVIRESDGSTYYADSVKGRFTISRDNAKNTVYLQMNSLKPEDTAVYYCAKDWYRSPSTYEWNSQYGYWGQGTQVTVSS,low polyreactivity
4,QVQLVESGGGLVQAGGSLRLSCAASGRIFGVYAMGWYRPAPGKERELVAAITRGASTYYADSVKGRFTISRDNAKNTVYLQMNSLKPEDTAVYYCAAVVSGRYWGYYSWGQGTQVTVSS,high polyreactivity
5,QVQLVESGGGLVQAGGSLRLSCAASGRIFGVYAMGWYRQAPGKERELGAALSEGGGSTNYADSVKGRFTISRDNAKNTVYLQMNSLKPEDTAVDYCAATSRTGVRRYYSWGQGTQVTVSS,low polyreactivity
6,QVQLVESGGGLVQAGGSLRLSCAASGRIFGVYAMGWYRQAPGKERELVAAIRGGGSTKYADSVKGRFTISRDNAKNTVYLQMNSLKPEDTAVYYCAARKRYYKHDYWGQGTQVTVSS,low polyreactivity
7,QVQLVESGGGLVQAGGSLRLSCAASGRIFGVYAMGWYRQAPGKERELVAAISEGGGSTNYADSVKGRFTISRDNAKNTVYLQMNSLKPEDTAVYYCAADRSYYGYGYWGQGTQVTVSS,low polyreactivity
8,QVQLVESGGGLVQAGGSLRLSCAASGRIFGVYAMGWYRQAPGKERELVAAITRGASTYYADSVKGRFTISRDNAKNTVYLQMNSLKPEDCAVYYCAVSQYRGIYRMDYWGQGTQVTVSS,high polyreactivity
9,QVQLVESGGGLVQAGGSLRLSCAASGRIFGVYAMGWYRQAPGKERELVAAITSSGGRTYYADSVKGRFTISRDNAKNTVYLQMNSLKPEDTAVYYCAALGWSRRGKFNYWGQGTQVTVSS,high polyreactivity
10,QVQLVESGGGLVQAGGSLRLSCAASGRIFGVYAMGWYRQAPGKERELVAAIYSGSTTYYADSVKGRFTISRDNAKNTVYVQMNSLKPEDTAVYYCAAVSRDDNYQDYYSWGQGTQVTGSS,low polyreactivity
11,QVQLVESGGGLVQAGGSLRLSCAASGRIFGVYAMGWYRQAPGKERELVADISWSGSGTYADSVKGRFTISRDNAKNTVYLQMMSLKPEDTAVYYCNVDPAQIHAGYVGYDYWGQGTQVTVSS,low polyreactivity
12,QVQLVESGGGLVQAGGSLRLSCAASGRIFGVYAMGWYRQAPGKERELVASITGSGGRTYYADSVKGRFTISRDNAKNTVYLQMNSLKPEDTAVYYCAAKWGTRLAQQKSYGYWGQGTQVTVSS,high polyreactivity
13,QVQLVESGGGLVQAGGSLRLSCAASGRIFGVYAMGWYRQAPGKERELVATITSGGSTSYADSVKGRFTISRDNAKNTVYLQMNSPKPEDTAVYYCNAPYSFFWQQMNYWGQGTQVTVSS,low polyreactivity
14,QVQLVESGGGLVQAGGSLRLSCAASGRIFGVYVMGWYRQAPGKERELVAAISWSGSHTYYADSVKGRFTISRDNAKNTVYLQMNSLKPEDTAVYYCAAGASLWRLGLKMGYWGQGTQVTVSS,low polyreactivity
15,QVQLVESGGGLVQAGGSLRLSCAASGRIFGVYVMGWYRQAPGKERELVAAISWSGSHTYYADSVKGRFTISRDNAKNTVYLQMNSLKPEDTAVYYCNADSSPEYTGPGLDWYDYWGQGTQVTVSS,low polyreactivity
16,QVQLVESGGGLVQAGGSLRLSCAASGRIFGWYAMGWYRQAPGKERELVAAIDGGDDSTYYADSVKGRFTISRDNAKNTVYLQMNSLKPEDTAVYYCAVVGYNWGQGTQVTVSS,low polyreactivity
17,QVQLVESGGGLVQAGGSLRLSCAASGRIFGWYAMGWYRQSPGKERELVAAITGSGSRTYYADSVKGRFTISRDNAKNTVYLQMNSLKPEDTAVYYCAVPTRRRRIYDYWGQGTQVTVSS,high polyreactivity
18,QVQLVESGGGLVQAGGSLRLSCAASGRIFGYHARGWSRQAPGKERELVAAIDYTGGSTYYADSVKGRFTISRDNAKNTVYLQMNSLKPEETAVNYCAKDRTTPWEEDAYWGQGTQVTVSS,low polyreactivity
19,QVQLVESGGGLVQAGGSLRLSCAASGRIFGYNALGWYRQAPGKERELVAAINSDGSKNYADSVKGRFTISRDNAKNTVYFQMNSLNPEDTALYYCNKELYPVGDYEYWGEGTQVTVSS,low polyreactivity
20,QVQLVESGGGLVQAGGSLRLSCAASGRIFGYNAMGWSRQAPGKERELFAAITTSGGSTYYADSVKGRFTISRDNAKNTVYLQMNSLKPEDTAVYYCARDSLQVFYPYASDDYWGQGTQVTVSS,low polyreactivity

row,Sequence,polyreactivity (PSR sort gate)
1,QVQLVESGGGLVQAGGSLRLSCAASGRIFGYNAMGWSRQAPGKERELGAAISWSGGSTFYADSVKGRFTISRDNAKNTVYLQMNSLKPEDTAVYYCAADSQDGYYYWGQGTQVTVSS,low polyreactivity
2,QVQLVESGGGLVQAGGSLRLSCAASGRIFGYNAMGWYRQAPGKERELVAVITYSGGSTYYADSVKGRFTISRDNAKNTVYLQMNSLKPEDTAVYYCNARPIDRYSGSGKQWPDYYYWGQGTQVTVSS,low polyreactivity
3,QVQLVESGGGLVQAGGSLRLSCAASGRIFGYYAMGCYRQAPGKERELVAAIRWGGGRTYADSVKGRFTISRDNAKNTVYLQMNSLKPEDTAVDYCAARFTRTRPLWRARYGYWGQGTQVTVSS,high polyreactivity
4,QVQLVESGGGLVQAGGSLRLSCAASGRIFGYYAMGWYIQAHGKERELVAAINSGSRTYYADSVKGRFTISRDNAKNTVYLQMNSLKPEDTAVYYCAARVRYPPYRSSDGQRGGYWGQGTQVTVSS,high polyreactivity
5,QVQLVESGGGLVQAGGSLRLSCAASGRIFGYYAMGWYRLAPGKERELVAAITSGGRTTYADSVKGRFTISRDNAKNTVYVQMNSLKPEDTAVYYCAKEYPRYSSPYDYWGQGTQVTVSS,low polyreactivity
6,QVQLVESGGGLVQAGGSLRLSCAASGRIFGYYAMGWYRQAPGKEMELVARITWSGGDTYYADSVKGRFTISRDNAKNTVYLQMNSLKPEDTAVYYCAADYLDSTYGYVYGWDDYWGQGTQVTVSS,low polyreactivity
7,QVQLVESGGGLVQAGGSLRLSCAASGRIFGYYAMGWYRQAPGKERELVAAINSGSRTYYADSVKGRFTISRDNAKNTVYLQMNSLKPEDTAVYYCAARVRYPPYRSSDGQRGGYWGQGTQVTVSS,high polyreactivity
8,QVQLVESGGGLVQAGGSLRLSCAASGRIFGYYAMGWYRQAPGKERELVAAISSSDGSTYYADSVKGRFTISRDNAKNTVYLQMNSLKPEDTAVYYCAASYYNWDVYQLSYRYDYWGQGTQVTVSS,low polyreactivity
9,QVQLVESGGGLVQAGGSLRLSCAASGRIFGYYTMGWYRQAPGKEREFVASISTTGGSTYYADSVKGRFTISRDNAKNTVYLQMNSLKPEDTAVYYCNVYYWYGSRGSYALGKEYDYWGQGTQVTVSS,high polyreactivity
10,QVQLVESGGGLVQAGGSLRLSCAASGRIFGYYTMGWYRQAPGKERELVAGITRRGGRTYYADSVKGRFTISRDNAKNTVYLQMNSLKPEDTAVYYCAVRSGVNFYYWGQGTQVTVSS,high polyreactivity
11,QVQLVESGGGLVQAGGSLRLSCAASGRIFGYYTMGWYRQAPWKESELVARIRRNGVSTYYADSVKGRFTISRDNEKNTVYLQMNSLKPEDTAVYYCAAGYSINFKYDYWGQGTQVTVSS,high polyreactivity
12,QVQLVESGGGLVQAGGSLRLSCAASGRIFHANAMGWYRQAPGKERELVAGISRNGGRTYYADSVKGRFTISRDNAKNTVYLQMNSLKPEDSAVYYCNALHWHSNELDYYWGQGTQVTVSS,high polyreactivity
13,QVQLVESGGGLVQAGGSLRLSCAASGRIFHANAMGWYRQAPGKERELVAGISRNGGRTYYADSVKGRFTISRDNAKNTVYLQMNSLKPEDTAVYYCAARVWGSSQYYYWGQGTQVTVSS,high polyreactivity
14,QVQLVESGGGLVQAGGSLRLSCAASGRIFHFYAMGWYRQAPGKERELVAAITSRTGNTYYADSVKGRFTISRDNAKNTVYLQMNSLKPEDTAVYYCAAKLVNALLHYRNWNHINYWGQGTQVTVSS,low polyreactivity
15,QVQLVESGGGLVQAGGSLRLSCAASGRIFHFYAMGWYRQAPGKERELVAAITSRTGNTYYADSVKGRYTISRDNAKNTVYLQMNSLKPEDTAVYYCAAKLVNALLHYRNWNHNNYWGQGTQVNVSS,low polyreactivity
16,QVQLVESGGGLVQAGGSLRLSCAASGRIFHFYAMGWYRQAPGKERELVASITWRGGRTYYADSVKGRFTISRDNAKNTVYLQMNSLKPEDTAVYYCAADFRSGFSSSTTPVQSDWGQGTQVTVSS,low polyreactivity
17,QVQLVESGGGLVQAGGSLRLSCAASGRIFHGYVMGWYRQAPGKERELVAAINQSGTSTYYADSVKGRFTISRDNAKNTVYLQMNSLKPEDTAVYYCAKDWAYRRHWVGFYYWGQGTQVTVSS,low polyreactivity
18,QVQLVESGGGLVQAGGSLRLSCAASGRIFHNYAMGWYRQAPGKERELVAAISSSGGRTTYADSVKGRFTISRDYAKNTVYLQMNSLKPEDTAVDYCAKRYPHIGDYWGEGTQVTVSS,high polyreactivity
19,QVQLVESGGGLVQAGGSLRLSCAASGRIFHPNAMGWYIQAPGKERELDAAISRSGSTYYADSVKGRFTISRDNAKNTVYLQMNSLKPEDTAVYYCATQTWSCFSGTPRIYDYWGQGTQVTVSS,high polyreactivity
20,QVQLVESGGGLVQAGGSLRLSCAASGRIFHQYAIGWSRPAPGKERELVAAISSGGGSTYYADSVKGRFTISRDNAKNTVYLQMNSLKPEDNAVYYCAAVYDYDRGVNYWGQGTQVTVSS,high polyreactivity
